{
  "source": "patent US20130331738A1",
  "about": "“COMPOSITIONS AND METHODS FOR POTENTIATING SONOTHROMBOLYSIS” (Board of Trustees University of Arkansas, priority 2012, published 2013)",
  "molecules": {"B1": {"name": "tPA: tissue plasminogen activator (protein, UniProt P00750 36-562, looked up)", "Tissue-type plasminogen …": "SYQVICRDEKTQMIYQQHQSWLRPVLRSNRVEYCWCNSGRAQCHSVPVKSCSEPRCFNGGTCQQALYFSDFVCQCPEGFAGKCCEIDTRATCYEDQGISYRGTWSTAESGAECTNWNSSALAQKPYSGRRPDAIRLGLGNHNYCRNPDRDSKPWCYVFKAGKYSSEFCSTPACSEGNSDCYFGNGSAYRGTHSLTESGASCLPWNSMILIGKVYTAQNPSAQALGLGKHNYCRNPDGDAKPWCHVLKNRRLTWEYCDVPSCSTCGLRQYSQPQFRIKGGLFADIASHPWQAAIFAKHRRSPGERFLCGGILISSCWILSAAHCFQERFPPHHLTVILGRTYRVVPGEEEQKFEVEKYIVHKEFDDDTYDNDIALLQLKSDSSRCAQESSVVRTVCLPPADLQLPDWTECELSGYGKHEALSPFYSERLKEAHVRLYPSSRCTSQHLLNRTVTDNMLCAGDTRSGGPQANLHDACQGDSGGPLVCLNDGRMTLVGIISWGLGCGQKDVPGVYTKVTNYLDWIRDNMRP"}},
  "system": "rigid clots (pooled rabbit plasma, fresh rabbit blood cells, thrombin)",
  "test": "Sonothrombolysis of aged and rigid clots, 1 MHz pulsed ultrasound in a Mylar flow chamber",
  "settings": "0.1 mg/mL of tPA and/or MBs at about 0.5-2.5×10^8 MB/mL",
  "procedure": "To assess the effect of CPDL and/or degradable starch nanoparticles on the efficacy of sonothrombolysis, the following experiment was conducted. Rigid clots were formed by mixing pooled rabbit plasma with fresh rabbit blood cells and 30 U/mL of thrombin. The clots were incubated at 37° C. in glass tubes for 24 h followed by curing at 5° C. for 24 h. The total clot volumes and mass densities of each main clot were measured, and then 9-11 mg pieces were cut from the main clot. Each clot piece was weighed and then insonated with 1 MHz, pulsed ultrasound in a Mylar flow chamber through which fresh rabbit serum containing tPA and/or microbubbles (MBs) were introduced continuously. Sonothrombolysis efficacy was quantified as the % of clot mass lysed in 15 min. A stable nanoemulsion of CPDL at a concentration ranging from about 0.003-0.06% w/V, and/or 50-200 nm degradable starch nanoparticles were added to the system to enhance sonothrombolysis efficacy.",
  "data": [
    {"molecule": "B1", "values": [
      {"measurement": "efficacy of sonothrombolysis for more rigid and aged clots", "result": "reduced markedly"}
    ]}
  ]
}
